Measured values: article PMC8011160
Several values for one entry are separate records, joined by “and”; a condition that tells them apart may be missing. Equal entries are not always repeated.

Tests used:
Assay in all cases: ELISA; host protein coated on microtiter wells; recombinant protein varied from 0 to 2 μM; absorbance with BSA subtracted; apparent Kd from the half-maximal binding concentration (GraphPad Prism 6)
[1] = molecular target: collagen Type I (purified from rat tail) (rat) (UniProt P02454)
Chain of collagen Type I (purified from rat tail) (rat) (P02454 152-1207, chain 1 of 2): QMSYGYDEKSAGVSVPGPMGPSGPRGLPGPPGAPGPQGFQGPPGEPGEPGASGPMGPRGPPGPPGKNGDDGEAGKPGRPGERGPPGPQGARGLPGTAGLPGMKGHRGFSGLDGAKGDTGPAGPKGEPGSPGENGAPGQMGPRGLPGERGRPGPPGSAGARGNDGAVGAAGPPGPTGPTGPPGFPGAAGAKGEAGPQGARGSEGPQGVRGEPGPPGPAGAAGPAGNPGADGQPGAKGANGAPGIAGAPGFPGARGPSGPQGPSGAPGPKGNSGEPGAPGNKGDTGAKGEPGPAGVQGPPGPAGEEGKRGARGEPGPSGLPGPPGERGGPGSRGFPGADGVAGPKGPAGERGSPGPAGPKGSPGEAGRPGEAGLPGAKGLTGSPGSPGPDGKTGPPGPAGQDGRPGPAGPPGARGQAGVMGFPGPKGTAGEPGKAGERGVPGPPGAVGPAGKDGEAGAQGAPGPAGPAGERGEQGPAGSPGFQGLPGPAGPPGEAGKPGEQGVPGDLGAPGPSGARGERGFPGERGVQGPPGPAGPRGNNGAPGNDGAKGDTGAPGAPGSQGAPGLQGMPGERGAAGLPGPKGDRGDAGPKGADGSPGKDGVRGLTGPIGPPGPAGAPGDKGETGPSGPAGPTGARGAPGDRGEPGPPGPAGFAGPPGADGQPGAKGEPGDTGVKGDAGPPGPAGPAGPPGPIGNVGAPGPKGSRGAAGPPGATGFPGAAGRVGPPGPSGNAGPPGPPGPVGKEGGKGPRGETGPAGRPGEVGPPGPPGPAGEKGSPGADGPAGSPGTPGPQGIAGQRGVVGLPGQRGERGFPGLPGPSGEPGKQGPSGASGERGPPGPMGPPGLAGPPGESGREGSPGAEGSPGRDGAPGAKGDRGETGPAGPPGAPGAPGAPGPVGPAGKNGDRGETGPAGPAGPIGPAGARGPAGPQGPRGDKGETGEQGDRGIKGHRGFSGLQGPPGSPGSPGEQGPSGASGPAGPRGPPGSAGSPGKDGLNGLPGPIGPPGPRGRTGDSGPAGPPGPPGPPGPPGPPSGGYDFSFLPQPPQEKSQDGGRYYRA
Chain of collagen Type I (purified from rat tail) (rat) (P02466 86-1125, chain 2 of 2, further chain): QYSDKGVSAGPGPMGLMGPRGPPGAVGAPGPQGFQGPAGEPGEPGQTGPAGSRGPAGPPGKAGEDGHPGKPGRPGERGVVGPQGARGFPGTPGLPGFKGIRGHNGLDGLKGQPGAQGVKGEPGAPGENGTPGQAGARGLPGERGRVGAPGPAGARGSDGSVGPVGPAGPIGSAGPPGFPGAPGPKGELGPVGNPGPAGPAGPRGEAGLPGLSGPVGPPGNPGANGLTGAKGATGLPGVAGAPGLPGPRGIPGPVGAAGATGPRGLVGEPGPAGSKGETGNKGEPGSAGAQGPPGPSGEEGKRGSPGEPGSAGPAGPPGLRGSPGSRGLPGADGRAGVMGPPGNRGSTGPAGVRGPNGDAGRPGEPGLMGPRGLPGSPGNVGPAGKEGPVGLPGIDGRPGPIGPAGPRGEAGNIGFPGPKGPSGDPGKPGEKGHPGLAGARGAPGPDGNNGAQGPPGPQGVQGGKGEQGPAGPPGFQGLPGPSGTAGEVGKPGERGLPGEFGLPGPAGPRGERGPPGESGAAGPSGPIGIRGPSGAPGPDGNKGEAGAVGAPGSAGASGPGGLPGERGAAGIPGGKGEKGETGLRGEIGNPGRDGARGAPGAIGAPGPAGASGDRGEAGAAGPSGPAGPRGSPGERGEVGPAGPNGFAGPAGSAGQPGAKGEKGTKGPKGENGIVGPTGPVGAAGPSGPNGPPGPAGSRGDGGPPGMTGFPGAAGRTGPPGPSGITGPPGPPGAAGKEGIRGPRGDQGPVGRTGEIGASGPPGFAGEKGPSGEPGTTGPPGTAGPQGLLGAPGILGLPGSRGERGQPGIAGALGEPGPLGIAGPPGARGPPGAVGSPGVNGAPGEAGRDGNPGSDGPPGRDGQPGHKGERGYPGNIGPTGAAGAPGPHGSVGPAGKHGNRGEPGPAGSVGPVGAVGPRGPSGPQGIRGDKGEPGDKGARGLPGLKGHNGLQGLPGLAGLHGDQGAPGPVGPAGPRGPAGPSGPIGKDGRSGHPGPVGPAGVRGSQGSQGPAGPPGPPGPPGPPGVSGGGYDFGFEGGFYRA

[2] = molecular target: collagen Type IV (purified from basement membrane of Engelbreth-Holm-Swarm mouse sarcoma) (mouse) (UniProt P02463)
[3] = molecular target: plasma fibronectin (purified from human plasma) (human)
[4] = molecular target: laminin (purified from basement membrane of Engelbreth-Holm-Swarm mouse sarcoma) (mouse) (UniProt P19137)
[5] = molecular target: plasminogen (purified from human plasma) (human)
[6] = molecular target: fibrinogen (purified from human plasma) (human) (UniProt P02671)
Chain of fibrinogen (purified from human plasma) (human) (P02671 other isoform, or with tags, fused parts or gaps, chain 1 of 3): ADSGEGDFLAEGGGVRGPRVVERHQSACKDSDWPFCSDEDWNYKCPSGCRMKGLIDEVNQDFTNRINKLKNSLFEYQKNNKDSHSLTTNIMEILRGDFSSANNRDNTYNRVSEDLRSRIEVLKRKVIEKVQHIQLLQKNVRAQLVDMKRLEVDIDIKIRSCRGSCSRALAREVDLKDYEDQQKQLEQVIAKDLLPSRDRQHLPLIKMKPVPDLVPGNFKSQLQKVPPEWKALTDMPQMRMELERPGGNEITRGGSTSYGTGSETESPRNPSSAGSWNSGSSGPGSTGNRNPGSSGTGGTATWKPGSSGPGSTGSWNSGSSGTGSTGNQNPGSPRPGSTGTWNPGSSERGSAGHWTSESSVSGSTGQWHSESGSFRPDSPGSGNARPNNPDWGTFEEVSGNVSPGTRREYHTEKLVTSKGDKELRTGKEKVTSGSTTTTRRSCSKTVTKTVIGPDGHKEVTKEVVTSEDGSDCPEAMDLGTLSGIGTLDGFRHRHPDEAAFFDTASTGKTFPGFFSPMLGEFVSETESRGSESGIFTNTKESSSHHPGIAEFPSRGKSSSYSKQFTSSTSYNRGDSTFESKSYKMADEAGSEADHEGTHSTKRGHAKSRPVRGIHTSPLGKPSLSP
Chain of fibrinogen (purified from human plasma) (human) (P02675 31-491, chain 2 of 3, further chain): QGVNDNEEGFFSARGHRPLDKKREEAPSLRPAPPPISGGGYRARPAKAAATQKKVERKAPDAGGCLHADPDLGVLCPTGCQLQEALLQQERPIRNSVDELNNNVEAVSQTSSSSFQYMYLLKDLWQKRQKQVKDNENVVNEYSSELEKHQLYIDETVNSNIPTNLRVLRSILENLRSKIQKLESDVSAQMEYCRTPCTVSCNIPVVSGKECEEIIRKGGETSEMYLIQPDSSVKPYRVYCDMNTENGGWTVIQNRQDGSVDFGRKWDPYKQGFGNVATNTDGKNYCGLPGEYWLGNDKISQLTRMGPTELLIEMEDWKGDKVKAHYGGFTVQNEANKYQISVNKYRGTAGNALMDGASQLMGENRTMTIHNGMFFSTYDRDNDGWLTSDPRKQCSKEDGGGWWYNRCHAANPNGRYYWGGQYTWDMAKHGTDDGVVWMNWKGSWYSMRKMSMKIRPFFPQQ
Chain of fibrinogen (purified from human plasma) (human) (P02679 other isoform, or with tags, fused parts or gaps, chain 3 of 3, further chain): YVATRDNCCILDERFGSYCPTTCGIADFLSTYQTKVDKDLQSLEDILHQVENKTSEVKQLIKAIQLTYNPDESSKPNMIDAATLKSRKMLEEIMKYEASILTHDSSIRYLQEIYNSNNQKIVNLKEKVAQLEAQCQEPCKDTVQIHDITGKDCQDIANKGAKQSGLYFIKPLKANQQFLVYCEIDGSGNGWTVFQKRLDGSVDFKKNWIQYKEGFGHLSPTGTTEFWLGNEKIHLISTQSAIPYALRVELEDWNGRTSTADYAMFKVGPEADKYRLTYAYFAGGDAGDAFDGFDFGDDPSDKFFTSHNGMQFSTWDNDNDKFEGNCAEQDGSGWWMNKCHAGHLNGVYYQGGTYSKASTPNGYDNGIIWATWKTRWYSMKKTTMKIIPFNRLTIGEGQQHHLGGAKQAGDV

[7] = molecular target: elastin (purified from bovine neck ligament) (bovine) (UniProt P04985)
Chain of elastin (purified from bovine neck ligament) (bovine) (P04985 27-747): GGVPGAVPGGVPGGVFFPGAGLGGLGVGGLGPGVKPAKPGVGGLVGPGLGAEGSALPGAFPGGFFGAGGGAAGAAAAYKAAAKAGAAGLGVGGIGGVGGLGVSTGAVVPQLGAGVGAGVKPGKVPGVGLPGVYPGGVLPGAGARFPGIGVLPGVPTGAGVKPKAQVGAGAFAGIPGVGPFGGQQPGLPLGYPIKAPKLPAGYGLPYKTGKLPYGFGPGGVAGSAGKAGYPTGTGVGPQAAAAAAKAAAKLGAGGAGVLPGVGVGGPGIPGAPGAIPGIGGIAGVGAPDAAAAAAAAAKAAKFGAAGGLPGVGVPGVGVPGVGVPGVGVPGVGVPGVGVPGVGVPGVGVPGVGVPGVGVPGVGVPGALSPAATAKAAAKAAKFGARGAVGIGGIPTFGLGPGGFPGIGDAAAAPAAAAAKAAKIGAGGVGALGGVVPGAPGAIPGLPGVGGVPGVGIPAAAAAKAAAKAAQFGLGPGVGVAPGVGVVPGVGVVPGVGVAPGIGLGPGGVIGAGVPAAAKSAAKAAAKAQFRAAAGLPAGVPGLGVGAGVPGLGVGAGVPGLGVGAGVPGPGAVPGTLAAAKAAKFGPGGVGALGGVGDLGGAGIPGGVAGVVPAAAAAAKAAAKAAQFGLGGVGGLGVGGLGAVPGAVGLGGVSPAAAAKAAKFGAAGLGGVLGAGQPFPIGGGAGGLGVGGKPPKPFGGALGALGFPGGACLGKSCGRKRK

Chain of GroEL protein of Leptospira interrogans (recombinant, His-tagged) (P61438 whole entry): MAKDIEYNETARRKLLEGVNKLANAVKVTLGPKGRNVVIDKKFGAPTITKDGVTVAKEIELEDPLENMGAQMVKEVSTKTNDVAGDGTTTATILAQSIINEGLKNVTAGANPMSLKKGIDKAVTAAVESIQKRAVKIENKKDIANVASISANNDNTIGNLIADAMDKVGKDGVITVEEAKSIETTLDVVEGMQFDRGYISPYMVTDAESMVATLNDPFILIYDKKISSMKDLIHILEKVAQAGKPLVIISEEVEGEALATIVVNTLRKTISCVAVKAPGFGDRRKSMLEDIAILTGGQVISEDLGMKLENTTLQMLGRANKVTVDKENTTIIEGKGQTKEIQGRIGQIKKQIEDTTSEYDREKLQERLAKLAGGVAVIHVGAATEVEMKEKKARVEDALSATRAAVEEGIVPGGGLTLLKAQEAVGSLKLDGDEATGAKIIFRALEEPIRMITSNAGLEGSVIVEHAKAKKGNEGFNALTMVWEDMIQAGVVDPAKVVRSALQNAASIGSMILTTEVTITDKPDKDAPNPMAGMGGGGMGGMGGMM

| Substance | Kd [1] [µM] | Kd [2] [µM] | Kd [3] | Kd [4] [µM] | Kd [5] [µM] | Kd [6] [µM] | Kd [7] [µM] |
| --- | --- | --- | --- | --- | --- | --- | --- |
| leptospiral protein 25 (Lp25) (natural protein) | 0.699 | 2.42 | 5.37 µM and 6.37 µM | 1.14 | 4.43 | 0.606 | 0.606 |
| GroEL protein of Leptospira interrogans (recombinant, His-tagged) (from UniProt P61438 1-546) (natural protein) |  |  | 0.034 µM and 0.01 µM |  | 0.031 |  |  |
| truncated form of leptospiral immunoglobulin-like protein B (LigBC, amino acids 631-1156) (from UniProt Q72V39 631-1156) (domain or fragment) |  |  | 0.015 µM and 0.006 µM |  | 0.005 |  |  |
